Measured values from the supplement of paper PMC10567573.

B1: ARL6IP1 (parent)
chain: YLDPSVLSGVSCFVMFLCLADYLV
B2: MIA2 (parent)
chain: SVIEPVQESSFRSRKIAVEDENDL

Variants of: B1
Assay: protein stability index of a GFP-peptide fusion (GPS, HEK-293T) (PSI 1-6); higher = more stable
Conditions: c terminus: a fixed tail appended
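Also: lentivirally expressed fusions sorted by FACS into six bins by GFP to DsRed ratio, PSI derived from sequencing read proportions per bin multiplied by bin number.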

Protein stability index: each site, then its substitutions
C12: F 2.47, V 3.66, D 3.35, A 3.07, P 3.54, G 3.53, W 2.26, Y 2.47, T 2.24, L 2.45, Q 4.12, S 1.48, M 2.56
L19: K 2.81, P 2.1, R 2.38, C 4.14, H 3.03, D 2.98, M 2.06, S 3.89, E 3.85, W 1.73, F 2.56, T 2.74, A 2.42, Y 1.85, Q 2.06, N 2.57
C18: V 2.09, F 3.35, A 1.91, T 3.26, Y 1.96, N 2.68, K 2.37, Q 2.01, R 2.65, L 3.54, G 2.47, H 2.85
F13: Y 3.73, D 2.64, I 2.81, Q 3.58, A 3.86, K 2.38, W 3.83, T 4.33, C 2.92, N 2.42
Y22: K 3.93, N 3.07, C 3.08, W 3.48, Q 3.52, P 2.87, L 1.58, S 3.94, V 2.14, I 2.44, H 2.31
V14: F 2.09, W 2.15, G 2.85, P 3.67, T 2.04, H 2.06, S 2.83, L 2.1, M 3.79, R 1.65, K 1.98, E 2.54, A 2.62
S11: H 2.62, F 2.24, G 3.42, P 3.52, V 4.17, Y 3.78
L23: I 4.16, Q 2.69, H 2.74, W 2.07, Y 2.27, T 3.08, P 2.39, V 3.07, K 3.29, N 3.21, G 2.59, E 4.8, M 2.83, C 3.76
M15: K 3.66, I 4.76, H 3.49, C 3.3, V 2.38, W 2.93, L 2.76, G 4.04, S 2.79, F 2.3, R 2.59, D 2.69, N 2.88, T 3.04
L17: S 1.35, W 3.18, G 4.55, F 2.82, R 2.54, M 4.66, H 2.4, D 2.49, T 3.26, V 2.2, K 3.75, A 2.34
A20: K 3.71, W 2.47, I 1.85, H 2.64, Y 3.24, V 1.63, F 2.87, C 3.26, T 4.15, N 3.34
V24: A 2.78, Y 2.16, I 3.52, F 2.97, C 3.6, S 2.53, L 3.97, M 3.77
F16: A 1.99, W 2.85, G 2.14, N 2.88, L 2.62, K 1.74, R 3.63, V 3.72, P 2.64
D21: A 2.71, H 2.6, I 3.5, N 2.7, T 3.76, K 1.14, Q 2.58, V 3.96, F 3.29, Y 1.55, G 3.14

Variants of: B2
Assay: as above
Conditions: c terminus: a fixed tail appended

Protein stability index of substitutions, site by site:
E8: N 5.64, R 4.79, D 4.48, M 4.58, A 5.28, H 5.02, Y 4.49, K 4.78, S 4.42, W 4.66, V 5.14, I 4.83, P 5.27, L 5.02, G 5.28, T 4.52, F 4.63, C 4.97, Q 5.1
S9: H 4.98, M 4.37, D 5.35, R 5.45, V 5.19, T 5.19, Q 5.35, Y 5.25, W 4.86, N 5.09, E 5.05, P 5.66, G 5.08, C 5.09, I 5.31, K 5.44, F 4.64, A 5.35, L 4.48
V2: P 5.15, K 5.38, L 5.24, I 4.69, F 4.42, D 5.83, G 5.67, M 5.22, H 5.51, C 5.76, W 5.14, T 5.31, R 5.5, E 5.22, S 5.32, N 5.87, Y 5.26, A 5.31, Q 5.82
S1: C 5.53, W 4.46, T 5.45, R 5.32, F 2.93, D 5.68, M 4.71, Y 3.12, E 5.28, K 5.13, P 5.59, G 5.17, H 5.52, V 4.33, A 5.01, N 5.69, I 3.96, L 4.33, Q 5.39
V6: Q 5.37, E 5.76, A 5.31, W 4.53, M 5.46, S 5.27, Y 4.91, K 5.62, G 5.75, L 5.16, F 4.94, C 5.66, I 5.34, R 5.27, N 4.92, P 5.18, H 5.48, D 5.65, T 5.39
E4: R 5, T 5.35, C 5.08, H 4.44, W 3.74, S 5.25, F 4.73, Y 4.64, A 5.68, P 5.37, L 4.62, M 4.9, G 5.01, I 4.62, Q 4.7, K 5.03, N 5.21, V 4.71, D 5.01
Q7: G 5.13, N 4.82, F 4.46, H 5.34, L 5.29, A 4.21, S 5.46, E 5.25, T 5.32, Y 5.21, M 5.04, I 4.93, D 5.25, V 5.28, P 5.49, W 5.13, C 3.93, K 4.98, R 4.92
S10: E 5.27, D 5.54, A 5.49, C 5.34
P5: F 3.31, G 4.65, T 5.3, I 3.56, S 5.03, W 3.49, R 5.13, E 4.79, V 4.95, H 4.98, L 3.56, N 5.01, M 4.14, K 4.38, D 4.88, Q 5.26, Y 3.78, C 4.74, A 4.3
I3: Y 5.42, D 5.9, C 5.5, N 5.61, W 5.13, H 4.67, S 4.84, G 5.73, P 5.13, M 5.44, E 5.61, A 5.71, F 5.32, V 5.62, T 5.6, L 5.59, K 4.92, Q 4.57, R 5.59
